# Test results as given in US20120171195A1.
# How the values were obtained:
# HLA-B*4403 (human) = assay: Luminex beads; MAb 1/100; PBS only
# HLA-Cw*0602 (human) = HLA-Cw*0602 (human) (UniProt P10321); assay: Luminex beads; MAb 1/100; PBS only
# HLA-B*4006 (human) = HLA-B*4006 (human) (UniProt P01889); assay: Luminex beads; MAb 1/100; PBS only
# HLA-Cw*0702 (human) = HLA-Cw*0702 (human) (UniProt P10321); assay: Luminex beads; MAb 1/100; PBS only
# HLA-B*4701 (human) = assay: Luminex beads; MAb 1/100; PBS only
# HLA-B*5801 (human) = assay: Luminex beads; MAb 1/100; PBS only
# HLA-Cw*0303 (human) = assay: Luminex beads; MAb 1/100; PBS only
# HLA-B*1801 (human) = assay: Luminex beads; MAb 1/100; PBS only
# HLA-Cw*1701 (human) = assay: Luminex beads; MAb 1/100; PBS only
# HLA-Cw*0501 (human) = assay: Luminex beads; MAb 1/100; PBS only
# HLA-Cw*0801 (human) = HLA-Cw*0801 (human) (UniProt P10321); assay: Luminex beads; MAb 1/100; PBS only
# HLA-B*1401 (human) = HLA-B*1401 (human) (UniProt P01889); assay: Luminex beads; MAb 1/100; PBS only
# HLA-B*1801 (B18) (human) = assay: Luminex single-antigen beads; MEM-E/02 1/600; serum Mi92 1/100
# HLA-B*6701 (B67) (human) = HLA-B*6701 (B67) (human) (UniProt P01889); assay: as above
# HLA-B*0801 (B8) (human) = HLA-B*0801 (B8) (human) (UniProt P01889); assay: as above
# HLA-A*3002 (A30) (human) = HLA-A*3002 (A30) (human) (UniProt P04439); assay: as above
# HLA-B*4901 (B49) (human) = assay: as above
# HLA-B*4501 (B45) (human) = assay: as above
# HLA-A*2601 (A26) (human) = assay: as above
# HLA-B*5301 (B53) (human) = assay: as above
# HLA-A*2501 (A25) (human) = assay: as above
# HLA-B*1301 (B13) (human) [1] = assay: as above
# HLA-B*1511 (B75) (human) = HLA-B*1511 (B75) (human) (UniProt P01889); assay: as above
# HLA-A*3301 (A33) (human) = assay: as above
# [2] = biological target: HLA-Cw*1203 (Cw12) (human) (UniProt P10321); assay: as above
# HLA-B*3801 (B38) (human) = assay: as above
# HLA-B*4403 (B44) (human) = assay: as above
# HLA-A*2403 (A24) (human) = assay: as above
# HLA-B*4801 (B48) (human) = HLA-B*4801 (B48) (human) (UniProt P01889); assay: as above
# HLA-B*5401 (B54) (human) = HLA-B*5401 (B54) (human) (UniProt P01889); assay: as above
# HLA-B*1513 (B77) (human) = assay: as above
# HLA-A*2402 (A24) (human) = HLA-A*2402 (A24) (human) (UniProt P04439); assay: as above
# HLA-B*2708 (B27) (human) = HLA-B*2708 (B27) (human) (UniProt P01889); assay: as above
# HLA-B*1401 (B64) (human) = HLA-B*1401 (B64) (human) (UniProt P01889); assay: as above
# HLA-B*3901 (B39) (human) = HLA-B*3901 (B39) (human) (UniProt P01889); assay: as above
# [3] = biological target: HLA-Cw*0401 (Cw4) (human); assay: as above
# HLA-A*3201 (A32) (human) = assay: as above
# [4] = biological target: HLA-Cw*0801 (Cw8) (human) (UniProt P10321); assay: Luminex single-antigen beads; MEM-E/02 1/600; serum Mi127 1/100
# HLA-B*1301 (B13) (human) [5] = assay: as above
substance,measurement,setting,value
murine monoclonal antibody (MAb) MEM-E/02,MFI,HLA-B*4403 (human),3680 MFI
same,MFI,HLA-Cw*0602 (human),4040 MFI
same,MFI,HLA-B*4006 (human),8590 MFI
same,MFI,HLA-Cw*0702 (human),3080 MFI
same,MFI,HLA-B*4701 (human),3650 MFI
same,MFI,HLA-B*5801 (human),3990 MFI
same,MFI,HLA-Cw*0303 (human),3200 MFI
same,MFI,HLA-B*1801 (human),3540 MFI
same,MFI,HLA-Cw*1701 (human),3360 MFI
same,MFI,HLA-Cw*0501 (human),7180 MFI
same,MFI,HLA-Cw*0801 (human),5890 MFI
same,MFI,HLA-B*1401 (human),7340 MFI
murine monoclonal antibody MAb MEM-E/02,MFI,HLA-B*1801 (B18) (human),< 500 MFI
same,MFI,HLA-B*6701 (B67) (human),< 500 MFI
same,MFI,HLA-B*0801 (B8) (human),990 MFI
same,MFI,HLA-A*3002 (A30) (human),< 500 MFI
same,MFI,HLA-B*4901 (B49) (human),890 MFI
same,MFI,HLA-B*4501 (B45) (human),< 500 MFI
same,MFI,HLA-A*2601 (A26) (human),< 500 MFI
same,MFI,HLA-B*5301 (B53) (human),797 MFI
same,MFI,HLA-A*2501 (A25) (human),722 MFI
same,MFI,HLA-B*1301 (B13) (human) [1],978 MFI
same,MFI,HLA-B*1511 (B75) (human),946 MFI
same,MFI,HLA-A*3301 (A33) (human),522 MFI
same,% inhibition,[2],65%
same,MFI,[2],788 MFI
same,MFI,HLA-B*3801 (B38) (human),< 500 MFI
same,MFI,HLA-B*4403 (B44) (human),600 MFI
same,MFI,HLA-A*2403 (A24) (human),< 500 MFI
same,MFI,HLA-B*4801 (B48) (human),< 500 MFI
same,MFI,HLA-B*5401 (B54) (human),< 500 MFI
same,MFI,HLA-B*1513 (B77) (human),< 500 MFI
same,MFI,HLA-A*2402 (A24) (human),< 500 MFI
same,MFI,HLA-B*2708 (B27) (human),< 500 MFI
same,% inhibition,HLA-B*1401 (B64) (human),7%
same,MFI,HLA-B*1401 (B64) (human),701 MFI
same,% inhibition,HLA-B*3901 (B39) (human),60%
same,MFI,HLA-B*3901 (B39) (human),737 MFI
same,% inhibition,[3],60%
same,MFI,[3],826 MFI
same,MFI,HLA-A*3201 (A32) (human),< 500 MFI
same,MFI,[4],< 500 MFI
same,MFI,HLA-B*1301 (B13) (human) [5],< 500 MFI
